{"source": "patent US20250297018A1", "about": "“IL-18BP ANTAGONIST ANTIBODIES AND THEIR USE IN MONOTHERAPY AND COMBINATION THERAPY IN THE TREATMENT OF CANCER” (Compugen Ltd., priority 2022, published 2025)", "key": {"IL18": {"target": "T1, IL18 (Homo sapiens, UniProt Q14116)", "T1 sequence (Q14116 37-193)": "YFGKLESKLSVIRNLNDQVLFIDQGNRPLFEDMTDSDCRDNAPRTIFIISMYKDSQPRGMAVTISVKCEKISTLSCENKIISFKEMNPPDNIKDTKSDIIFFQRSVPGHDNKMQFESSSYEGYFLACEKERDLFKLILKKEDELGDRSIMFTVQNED", "settings": "Kim et al., PNAS 2000; read-out: Dissociation constant (Kd) for IL18; cited from earlier work"}, "[1]": {"experiment": "MC38ova tumor-bearing mice treated with anti-mIL18BP or engineered mIL-18: weight, serum cytokines, spleen", "assay_type": "in vivo, mouse", "settings": "spleens harvested 24 hours after the 4th treatment (IL-15: single dose), vs control", "method": "Experiments were performed in C57Bl/6 (female, 6-8 wk, Envigo). Mice were anesthetized with 10% Ketamine and 10% Xylazine mixture injected intraperitoneal. Next, mice were inoculated with MC38ova cells (1.2×10^6) subcutaneously to the right flank in 50 μl/mice.\nSpleens were harvested from mice 24 hours after the 4th treatment and weighed. For IL15 experiments, mice were treated with a single dose of 0.5 μg, 1.5 μg of IL15, or with a mix of 0.5 μg IL15 and 2.33 μg IL15R."}, "[2]": {"target": "T2, recombinant human IL18-BP (Homo sapiens, UniProt O95998)", "T2 construct": "purchased R&D systems 119-BP; host or cells: added to MEL624/PD-L1 + CMV-reactive T-cell culture", "T2 sequence (O95998 31-194)": "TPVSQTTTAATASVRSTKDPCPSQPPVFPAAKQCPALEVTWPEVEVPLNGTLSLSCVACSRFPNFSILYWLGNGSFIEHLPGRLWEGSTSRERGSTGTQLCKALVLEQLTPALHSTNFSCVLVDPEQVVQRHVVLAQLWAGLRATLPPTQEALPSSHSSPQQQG", "experiment": "MEL624:TIL assay, IFNγ secretion", "assay_type": "cell-based", "settings": "rhIL-18 30 ng/ml + rhIL-18BP 1 μg/ml, 24 h, vs isotype control", "method": "Human MEL624 cells were thawed and grown in DMEM with 10% FBS, 1% Glutamax, 1% Penicillin-Streptomycin Solution and 1% HEPES buffer. The cells were then seeded at 75 k cells/well in a 96 well plate in the assay medium (IMDM with 10% human serum, 1% Glutamax, 1% MEM eagle, 1% Sodium Pyruvate and 1% Penicillin-Streptomycin Solution) and incubated 1 hour in 37° C., 5% CO2 incubator before co-culture with human tumor infiltrating lymphocytes that were previously expanded using known melanoma antigens (TILs). Human TILs were thawed in full TIL media and 75 k cells/well were co-cultured with the MEL624 cells to create an effector:target ratio of 1:1. The co-cultured cells were then treated with rhIL-18 (30 ng/ml) and rhIL-18BP (1 μg/ml) for 30 min in 37° C., 5% CO2 incubator to allow IL-18:IL-18BP complex formation. After 30 minutes, anti-human IL-18BP mAb (ADI-71722, dose titration, 30 μg/ml-0.01 μg/ml, dilution factor of 1:3) or relevant isotype control (hIgG1 30 μg/ml) were added to the co-culture to examine its capability to restore IL-18 activity. Cells and all added solutions were prepared in full assay medium to a final volume of 200 μl/well. Plates were incubated for 24 hours in 37° C., 5% CO2 incubator, after which the supernatant was collected for cytokine secretion evaluation. […]\nWhere applicable, the EC50 value was calculated using GraphPad Prism software."}, "[3]": {"target": "T2, recombinant human IL18-BP", "experiment": "CMV recall assay, IFNγ secretion by CMV-reactive T-cells", "assay_type": "cell-based", "settings": "rhIL-18 30 ng/ml + rhIL-18BP 2 μg/ml; antibodies 10 μg/ml", "method": "Human MEL-624 overexpressing PD-L1 cells were thawed and loaded with CMV pp65 peptide (0.03 μg/ml). The cells were seeded at 100K/well in a 96 well plate and incubated for 30 minutes in 37° C., 5% CO2 incubator with a combination rhIL-18 (30 ng/ml, R&D systems, 9124-IL/CF) and rhIL-18BP-Fc chimeric protein ([…], R&D systems 119-BP) to allow IL-18+IL-18BP complex formation. After 30 minutes, anti-human IL-18BP (ADI-71722, anti-human PVRIG, anti-human TIGIT (anti-TIGIT), anti-human PD1 (Pembrolizumab) or relevant isotype control (hIgG4) were added to the culture to examine their capability to restore IL-18 activity. All antibodies were added to a final concentration of 10 μg/ml. 30 minutes post incubation with antibodies, thawed CMV-reactive T-cells were added to the culture. Cells and all added solutions were prepared in full IMDM (IMDM media with 10% human serum, 1% Glutamax, 1% MEM eagle, 1% sodium pyruvate, and 1% Penicillin-Streptomycin Solution) to a final volume of 200 μl/well. Plates were incubated for 24 hours in 37° C., 5% CO2 incubator, after which the supernatant was collected for IFNγ secretion evaluation. All tests were done in triplicates and each repeated with three donors.\nMEL624 cells that overexpress PD-L1 were loaded with CMV peptide pp65. […] CMV-specific T-cells were then added to the culture and IFNg secretion was measured after an overnight incubation."}, "MEL624 cells": {"tested_on": "MEL624 cells", "experiment": "Killing of MEL624 melanoma cells by human TILs (IncuCyte)", "assay_type": "cell-based", "settings": "rhIL-18 50 ng/ml + rhIL-18BP 1 μg/ml, 10 μg/ml antibody, 72 hours", "method": "MEL624 cells were co-cultured with human TILs that were previously enriched for MARTI or gp100 peptide-specific clones. rhIL-18 (R&D systems, 50 ng/ml) and rhIL-18BP (R&D systems, 1 μg/ml) were added to the co-culture for 30 minutes to allow the formation of IL-18:IL-18BP complex prior to treatment with 10 μg/ml ADI-71739 or isotype control. The co-culture was monitored for 72 hours using an IncuCyte live cell imaging instrument. […] In the presence of the isotype control antibody (black), IL-18BP abrogated the effects of IL-18, while the anti-IL-18BP antibody (turquoise) was able to completely restore these effects."}, "endogenous IL-18BP": {"target": "T3, endogenous IL-18BP (Homo sapiens, UniProt O95998)", "T3 construct": "endogenous in cells; host or cells: MEL624 cells co-cultured with human TILs", "T3 sequence (O95998 31-194)": "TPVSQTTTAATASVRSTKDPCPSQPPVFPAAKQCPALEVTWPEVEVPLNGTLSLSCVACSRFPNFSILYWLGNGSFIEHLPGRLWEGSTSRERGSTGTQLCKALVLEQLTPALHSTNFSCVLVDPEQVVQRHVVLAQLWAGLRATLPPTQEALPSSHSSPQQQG", "experiment": "MEL624:TIL co-culture with endogenous IL-18BP levels, IFNg release", "assay_type": "cell-based", "settings": "IL-18 3.7 ng/ml, 5 μg/ml antibody, 18 hours, vs isotype", "method": "A. Schematic representation of assay setup. MEL624 cells were co-cultured with human TILs that were previously enriched for MARTI or gp100 peptide-specific clones. IL-18 (3.7 ng/ml) was added to the co-culture along with 5 μg/ml ADI-71739 or isotype control. The co-culture was set for 18 hours following which IFNg levels were measured in supernatants. B. IFNg levels were increased in co-cultures treated with ADI-71739 (turquoise) as compared with isotype-treated samples (black). Representative examples from two TIL donors are shown."}, "human whole blood": {"tested_on": "human whole blood", "experiment": "Whole blood loop assay (ID.Flow)", "assay_type": "cell-based", "settings": "ex vivo whole blood loop, six healthy volunteers, 24 hr", "method": "Flow, an ex vivo system that mimics the human blood circulation. Fresh whole blood was taken from six healthy volunteers and immediately transferred to a whole blood loop system. The test items were administered, and the blood was set to circulate at 37° C. to prevent clotting. Blood samples collected at the 24 hr time point were analyzed for hematology and flow cytometry parameters and then processed to plasma for cytokine analysis. The anti-CD52 antibody Alemtuzumab was included as a reference antibody with manageable cytokine release in the clinic."}}, "data": [{"molecule": "IL18-BPa: most abundant human IL18-BP isoform, isoform a", "values": [{"measurement": "Kd", "setting": "IL18", "value": "~0.4", "unit": "nM"}]}, {"molecule": "IL-15: IL15 given as single dose of 0.5 μg or 1.5 μg, or mixed with IL15R [reference compound]", "values": [{"measurement": "Spleen size", "setting": "[1]", "value": "larger than controls"}]}, {"molecule": "ADI-71739: anti-IL18-BP antibody, VH SEQ ID NO: 154, VL SEQ ID NO: 159 (FIG. 2K), 66716 lineage (antibody, V domains shown) VH: QLQLQESGPGLVKPSETLSLTCTVSGGSISSPDYPWGWIRQPPGKGLEWIGSIYYQGATYYNPSLKSRVTISVDTSKNQFSLKLSSVTAADTAVYYCARGPYRQLFDYWGQGTLVTVSS VL: DIQMTQSPSSVSASVGDRVTITCRASQGISSWLAWYQQKPGKAPKLLIYAASSLQSGVPSRFSGSGSGTDFTLTISSLQPEDFATYYCQQGSVFPYTFGGGTKVEIK", "values": [{"measurement": "IFNγ secretion from TILs", "setting": "[2]", "value": "increase IFNγ secretion from TILs compared to isotype control"}, {"measurement": "IFNγ secretion by CMV-reactive T-cells", "setting": "[3]", "value": "increase IFNγ secretion by the T cells"}, {"measurement": "Killing of melanoma cells by tumor infiltrating lymphocytes", "setting": "MEL624 cells", "value": "increased killing of melanoma cells by tumor infiltrating lymphocytes"}, {"measurement": "IFNg release by tumor infiltrating lymphocytes", "setting": "endogenous IL-18BP", "value": "increased IFNg release by tumor infiltrating lymphocytes"}]}, {"molecule": "ADI-71722: anti-IL18-BP antibody, VH SEQ ID NO: 84, VL SEQ ID NO: 89 (FIG. 2D), 66670 lineage (antibody, V domains shown) VH: QVQLVQSGAEVKKPGSSVKVSCKASGGTFSEYPISWVRQAPGQGLEWMGGIIPGAGTAIYAQKFQGRVTITADESTSTAYMELSSLRSEDTAVYYCARGRHFHETWGQGTLVTVSS VL: DIQMTQSPSSVSASVGDRVTITCRASQGISSWLAWYQQKPGKAPKLLIYAASSLQSGVPSRFSGSGSGTDFTLTISSLQPEDFATYYCQQVYRFPWTFGGGTKVEIK", "values": [{"measurement": "IFNγ secretion by CMV-reactive T-cells", "setting": "[3]", "value": "fully restore IFNγ secretion"}]}, {"molecule": "ADI-71709: anti-IL18-BP antibody, VH SEQ ID NO: 54, VL SEQ ID NO: 59 (FIG. 2A), 66650 lineage (antibody, V domains shown) VH: QVQLVQSGAEVKKPGASVKVSCEASGYTFDIYAVHWVRQAPGQRLEWMGWIHAGTGATKYSQKFQGRVTITRDTSASTAYMELSSLRSEDTAVYYCARGLGEVGPTGTSWFDPWGQGTLVTVSS VL: DIQMTQSPSTLSASVGDRVTITCRASQSISSWLAWYQQKPGKAPKLLIYEASSLESGVPLRFSGSGSGTEFTLTISSLQPDDFATYYCQQYRQSPFTFGGGTKVEIK", "values": [{"measurement": "Signs of systemic immune activation", "setting": "human whole blood", "value": "did not show signs of systemic immune activation"}]}]}
